± gives the standard error. Variants at the floor of the assay were thinned out.
B1: glmS ribozyme (parent)
chain: AUAAAAGCGCCAGAACUACAGAAAUGUAGUUGACGAGGAGGAGGUUUAUCGAAUUUUCGGCGGAUGCCUCCAAA

Variants of: B1
Test: self-cleavage kobs at 10000 uM GlcN6P; higher = faster cleavage; RNA array
Settings: with glucosamine-6-phosphate
In short: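 Tiles bearing barcoded ribozyme variants, transcribed in situ by E. coli RNA polymerase on sequenced MiSeq chips, were imaged over ~14 h at 37 °C using a hybridised Cy3 probe. Glucosamine-6-phosphate was supplied at 40 μM to 10 mM in HEPES/KCl/Mg(OAc)2 buffer. kobs came from one- or two-exponential decay fits to normalised per-tile medians, and weighted Michaelis–Menten fits then provided kcat and KM.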

| Variant | self-cleavage kobs at 10000 uM GlcN6P |
| --- | --- |
| G21U G41C C70U | 0.000298 ± 8.1e-05 s⁻¹ |
| A12C U49A G66C C71U | < 1e-05 s⁻¹ |
| A12C G29U U69G | 3.54e-05 ± 1.6e-05 s⁻¹ |
| C16U A53U U65G | 0.00246 ± 0.00058 s⁻¹ |
| C11A U30A C70G | 5.91e-05 ± 1.5e-05 s⁻¹ |
| G35C G51U C58U C61G A64G U65A | < 1e-05 s⁻¹ |
| A36C C61A | < 1e-05 s⁻¹ |
| A12C A14G U54A | 0.0236 ± 0.0056 s⁻¹ |
| A36C A39U C67U | < 1e-05 s⁻¹ |
| C11U U31G U49A G62A | < 1e-05 s⁻¹ |
| G35A U49G C61U | < 1e-05 s⁻¹ |
| U30G A42U | 3.53e-05 ± 8.7e-06 s⁻¹ |
| C11U U31C A42G A53U | 0.000372 ± 8e-05 s⁻¹ |
| G38U A39C G44A | < 1e-05 s⁻¹ |
| G32U G41A A53G | 0.000262 ± 6.5e-05 s⁻¹ |
| C19U C68U | 0.00423 ± 0.0011 s⁻¹ |
| C19G G37A | 0.00215 ± 0.00044 s⁻¹ |
| C16G G32C G43U U47G U56A | < 1e-05 s⁻¹ |
| C11U U57C | 5.06e-05 ± 1.6e-05 s⁻¹ |
| U31G G38U A53U | < 1e-05 s⁻¹ |
| C11U G38U C50A | < 1e-05 s⁻¹ |

| Variant | self-cleavage kobs at 10000 uM GlcN6P |
| --- | --- |
| A36C G41U C50G G60U C61G | < 1e-05 s⁻¹ |
| C11U U47A U69A | 4.5e-05 ± 1.5e-05 s⁻¹ |
| A12U A14G G41A A42G | 0.000918 ± 0.0002 s⁻¹ |
| A14C U30A U47G C70U | 8.66e-05 ± 1.4e-05 s⁻¹ |
| U31A G32A G62U | < 1e-05 s⁻¹ |
| G32A U45G U47A | 0.000614 ± 0.00014 s⁻¹ |
| A12G G37A G43A A52G | < 1e-05 s⁻¹ |
| C11U A12G A14U | 0.000156 ± 3.3e-05 s⁻¹ |
| A12U U31G U55C U65A | 0.0008 ± 0.00013 s⁻¹ |
| G35U U47C G51U | < 1e-05 s⁻¹ |
| U31G U54C C70G | 0.000117 ± 2.3e-05 s⁻¹ |
| U31C G41A G66A | 0.00018 ± 2.8e-05 s⁻¹ |
| A14C U31A U69G | 5.33e-05 ± 1.5e-05 s⁻¹ |
| A14U A48C U55A | 3.3e-05 ± 1.5e-05 s⁻¹ |
| A33C G43A G44C C61A C67U | < 1e-05 s⁻¹ |
| G29U G35C G43C G59A | < 1e-05 s⁻¹ |
| A15C G41U G66A | 0.000194 ± 4.9e-05 s⁻¹ |
| A14C G44A U45A | 7.22e-05 ± 2.3e-05 s⁻¹ |
| G13U A39G G63C | < 1e-05 s⁻¹ |
| G29C G32U C70A | 0.000104 ± 2.2e-05 s⁻¹ |
| G13U A42G C50U | < 1e-05 s⁻¹ |

| Variant | self-cleavage kobs at 10000 uM GlcN6P |
| --- | --- |
| C16A G29U C58A | 0.000415 ± 0.00011 s⁻¹ |
| A14G C16A G29C A53G | 0.000885 ± 0.00021 s⁻¹ |
| A14C A39U U47C C70U | 0.00047 ± 6.5e-05 s⁻¹ |
| U31G A36U G40C U56G G66A | < 1e-05 s⁻¹ |
| A12U G29C U46A | 0.000658 ± 0.00018 s⁻¹ |
| G13C U56G A64G C67A | 3.32e-05 ± 1.4e-05 s⁻¹ |
| G29U A48G G51A | < 1e-05 s⁻¹ |
| C16U G41U U47A | 0.000489 ± 7.1e-05 s⁻¹ |
| A33C A39G U69G | < 1e-05 s⁻¹ |
| A15G A53U U69G | 5.88e-05 ± 1.8e-05 s⁻¹ |
| A12G U46C | 0.000349 ± 5.9e-05 s⁻¹ |
| G38C A42G A64G | < 1e-05 s⁻¹ |
| G13U U46C | 3.18e-05 ± 1.1e-05 s⁻¹ |
| U31A C58U | 4.45e-05 ± 6.1e-06 s⁻¹ |
| A15G G44U C58U C67A | 2.9e-05 ± 1.2e-05 s⁻¹ |
| A12G A42C U69A | 0.000102 ± 1.5e-05 s⁻¹ |
| U31C C58A G63U | < 1e-05 s⁻¹ |
| G37A U45A C61U C67U | < 1e-05 s⁻¹ |
| G29U A53C G60A | < 1e-05 s⁻¹ |
| U30G G35A G40C C68G | < 1e-05 s⁻¹ |
| C16U G32A U57C | 2.6e-05 ± 1.3e-05 s⁻¹ |

| Variant | self-cleavage kobs at 10000 uM GlcN6P |
| --- | --- |
| G35C C50G A53C | 3.34e-05 ± 8.6e-06 s⁻¹ |
| A12U A14G U57A | 0.000643 ± 0.00011 s⁻¹ |
| G32C A48C U55C G59A G63A | < 1e-05 s⁻¹ |
| C34A A42C U65A | < 1e-05 s⁻¹ |
| G13C U55G C58G | 4.29e-05 ± 1.4e-05 s⁻¹ |
| A15G U49G G60A | < 1e-05 s⁻¹ |
| U30A C67G C71G | < 1e-05 s⁻¹ |
| A14C G40U U56G | 0.00853 ± 0.0032 s⁻¹ |
| G38A A42G U49A | < 1e-05 s⁻¹ |
| G21U A52G | 0.00145 ± 0.0003 s⁻¹ |
| A14C U54G C70A | 7.96e-05 ± 1.8e-05 s⁻¹ |
| A33C C50A C67G C68G | 7.88e-05 ± 2.1e-05 s⁻¹ |
| A14C U55G C67G | 0.000215 ± 3.8e-05 s⁻¹ |
| C11G G29U C34A A36U G37U G44C C68U | < 1e-05 s⁻¹ |
| A33U A39C A48C | < 1e-05 s⁻¹ |
| C11G G38A A48C G60C G62C C68U | < 1e-05 s⁻¹ |
| C16A U31G C67U | 6.54e-05 ± 1.4e-05 s⁻¹ |
| C34A G63U C70A | < 1e-05 s⁻¹ |
| A39G A53C C71A | 0.00202 ± 0.00063 s⁻¹ |
| C11A U55A U56C | 2.5e-05 ± 1.1e-05 s⁻¹ |
| C34A G51A C67G C70A | < 1e-05 s⁻¹ |
